Experimental data published in PMC12548092, “Exploring Helical Fraying Linked to Dynamics and Catalysis in Adenylate Kinase” (Biochemistry, 2025).

System: Nc1ncnc2c1ncn2[C@@H]1O[C@H](COP(=O)(O)OP(=O)(O)OP(=O)(O)O)[C@@H](O)[C@H]1O
Test: purified protein
Conditions: varied substrate not named in table (text: substrates ATP and AMP)

| Substance | Km | kcat | kcat/Km |
| --- | --- | --- | --- |
| AKeco (Escherichia coli K-12) | 110 ± 9 µM | 360 ± 11 s⁻¹ | 3.3e+06 M⁻¹ s⁻¹ |
| AKeco (Escherichia coli K-12; E114A) | 36 ± 7 µM | 254 s⁻¹ | 7.1e+06 M⁻¹ s⁻¹ |
